“Also recorded” adds a separate entry of the source.

Data set [1] deals with platelets. Kind of data set: Release of sCD154 from stimulated platelets in platelet-rich plasma (ELISA). Format: cell-based, human. The following applies: for Inhibition of sCD154 Release at >90% Platelet Aggregation Inhibition, % / Potentiation of sCD154 Release, %: TRAP-stimulated platelets, average and SD; for Inhibition of sCD154 Release at >90% Platelet Aggregation Inhibition, %: release without GP IIb-IIIa inhibitor set at 100%; for Potentiation of sCD154 Release, %: maximal potentiation, release without inhibitor set at 100%. As to the method: Platelet-rich plasma (PRP) was prepared from human donors by obtaining blood through a 19-gauge butterfly into PPACK anticoagulant (8.6 ml of 2.1 mM PPACK, Calbiochem, La Jolla, Calif.: final concentration 0.3 mM). Blood was aliquoted into 15 ml polypropylene tubes and centrifuged at 900 rpm for 20 minutes (160×g). The platelet rich plasma (PRP) was carefully removed and pooled in a new tube. Platelet counts were taken and recorded. Aliquots of PRP at 37° C. were then added to 1.5 ml microcentrifuge tubes containing various amounts of eptifibatide. To initiate aggregation, 20 μM ADP 4 μg/mL collagen or 5 μM TRAP6 was added and samples were rocked on a Nutator for 30 minutes at 37° C. The tubes were put on ice and immediately centrifuged at 15,000×g for 10 minutes at 4° C.
The platelet-poor plasma (PPP) supernatant was removed to new tubes and the levels of sCD154 in these samples were measured by ELISA. There was a time-dependent increase in sCD154 release when platelets were aggregated with either ADP or TRAP6.
(§1) In other experiments, various concentrations of eptifibatide, abciximab or tirofiban were added to PRP before the addition of TRAP. In the eptifibatide experiments, the release of βTG from platelet a granules was determined from PPP samples by ELISA. Inhibition of aggregation by GP IIb-IIIa antagonists was determined in PPACK-anticoagulated PRP by light-transmission aggregometry (Chrono-Log) as described in Phillips et al. (1995) J Exp. Med 182:33-40. To assess the effect of aspirin use on the release of sCD154 from platelets, PRP was obtained from 7 donors, incubated with a single concentration of GP IIb-IIIa inhibitor, and stimulated with 20 μmol/L ADP, 5 μmol/L TRAP or 4 μg/mL collagen for 30 minutes while rocking at 37° C. Resultant PPP was measured for sCD154. The same donors then took 325 mg of aspirin for 7 days. PRP was again collected and subjected to the same conditions, and the release of sCD154 was determined. A control reading (no addition of inhibitor) was taken with the agonist 0.5 mmol/L arachidonic acid in citrated PRP to ensure that the aspirin had been taken.

Data set [2] relates to platelets. Kind of data set: Platelet aggregation in PRP by light-transmission aggregometry. Format: cell-based, human. The following applies: before and after 7 days of aspirin. As to the method: as §1
In another data set the test system is platelets in whole blood. The data set is described as follows: Perfusion chamber: thrombus formation of whole blood on protein-coated surface under shear. Format: cell-based, human. The following applies: with or without Fg. On the procedure:
The effect of CD154 on the aggregation of platelets under conditions of high shear stress were evaluated. Recombinant CD154 (rCD154 or rCD40L) was compared to fibrinogen (Fg) in its ability to form thrombi as well as in combination with Fg. Controls also included CD154 in which the KGD eptifibatide-recognition sequence was mutated to KGE (CD154(KGE) or CD40L(KGE)). Briefly, a silicone gasket with a flow path height of 127 μm was placed between a flat perfusion chamber (Glycotech, Rockville, Md.) and a protein-coated petri dish as described (Andre, P. et al., Nature Medicine, 8:247-252 (2002)). Petri dishes were coated with rCD40L, Fibrinogen (Fg), rCD40L+Fg, mutated CD40L (CD40L(KGE)), CD40L(KGE)+Fg. In one experiment, the glycoprotein IIb/IIIa antagonist eptifibatide (2 μM) was incubated with whole blood before perfusion over the rCD40L-coated surface. When Fg was coated with either rCD40L or CD40L(KGE), each molecule was deposited at 25 μg/cm^2. Coating of the proteins was performed using the spray method in which 25 μl of a 1 mg/ml protein solution is coated onto the plastic with a retouching air brush resulting in a concentration of 25 μg/cm^2 (Houdijk, WP et al., J. Clin. Invest., 75:531-540 (1985)). Human peripheral blood was collected on PPACK (40 μmol/L final concentration) and perfused for 4 minutes over the protein-coated surface. Shear rates of 1500-1600/s, 500-600/s and 100-200/s, were generated with flow rates of ˜0.6, 0.25 and 0.075 ml/min, respectively. Measurements of thrombotic deposits were performed using the Simple PCI software image analysis program (Technical Instrument, Burlingame, Calif.).

Another data set relates to washed platelets. Kind of data set: Fibrinogen binding to washed platelets and microparticle generation (flow cytometry). Type of data set: cell-based, human. The following applies: 2 μM protein, 60 minutes at 37° C.; FIG. 10. On the procedure:
Venous blood was collected from normal donors into ACD buffer (85 mM Sodium Citrate, […] and 71 mM Citric acid) containing 0.05 μg/ml prostaglandin 12(PGI2). Blood was later centrifuged at 160×g for 20 minutes to collect platelet rich plasma (PRP). PRP was centrifuged at 1100×g for 10 minutes to sediment platelets. Platelets were washed twice with CGS buffer (13 mM trisodium citrate, 120 mM sodium chloride and 30 mM dextrose pH 7.0). The first wash had 0.03 μg/ml PGI2. Washed platelets were finally suspended in Tyrodes-Hepes buffer (12 mM sodium bi-carbonate, 138 mM sodium chloride, 5.5 mM glucose, 2.9 mM potassium chloride, 10 mM Hepes, 1 mM calcium chloride and 1 mM magnesium chloride, pH 7.4).
Washed platelets (1×10^7/ml) were incubated for 60 minutes at 37° C. with 2 μM soluble CD154 (sCD154) or mutant sCD154 (D117E mutation in the KGD sequence) in the presence or absence of eptifibatide or anti-CD40 antibody. All incubations had 100 nM Alexa-Fibrinogen (Molecular probes, Eugene, Oreg.). Samples were diluted 10 fold with stain buffer (BD Pharmingen, Los Angeles, Calif.) after incubation and analyzed by flow cytometry (FACSort, BD, San Jose, Calif.).
Background: Flow cytometry measures light scatter and fluorescence of single cells or particles in a stream.

Data set [3] relates to platelets. The data set is described as follows: Platelet function (Accumetrics RPFA) in patients undergoing PCI. Format: in vivo, human. The following applies: 10 minutes post final bolus. On the procedure: (§2) Patients (n=45) undergoing PCI were enrolled. The study was approved by the IRB and all patients signed informed consent. Exclusion criteria included higher risk clinical scenarios mandating, according to institutional clinical practice, the use of GP IIb/IIIa antagonists (i.e., acute ST elevation MI or non q-wave MI with CPK elevation, pain at rest with EKG changes <24 hours, visible thrombus, pain refractory to heparin), pre-procedural GP IIb/IIIa inhibitor treatment, restenotic and graft lesions, and standard conditions excluding GP IIb/IIIa inhibitor use.
(§3) All patients received aspirin and intravenous heparin (50-70U/kg) monitored by activated clotting time (ACT) during the procedure. Patients were administered either no GP IIb/IIIa inhibitor, eptifibatide (180 μg/kg double bolus followed by 2 μg/kg/min for 16 h), or abciximab (0.25 mg/kg bolus intravenously followed by 0.125 μg/kg/min for 12 h) at the discretion of the primary operator. Platelet function was monitored using PPACK-anticoagulated blood and the Accumetrics RPFA device at baseline and 10 min post-final bolus. Interventionalists were blinded to RPFA results and not permitted to modify GP IIb-IIIa inhibitor dosing. Post-PCI, patients received clopidogrel (300 mg PO) followed by 75 mg daily.

A short description of data set [4]: Plasma inflammatory markers after PCI (ELISA). Format: in vivo, human. As to the method:
as §2, §3
Venous blood samples were collected prior to (t=0) and at 30 minutes, 2 hours, and 24 hours after the angioplasty wire was advanced across the lesion. Blood was collected into 10 mL tubes with either EDTA (for sCD 154 analysis) or PPACK (for all other analyses) anticoagulant, centrifuged at 4° C., and stored at −80° C. until analysis.
Inflammatory markers in plasma samples were quantified by commercially available ELISA for sCD154 (Alexis BioChemical) with modification (12), RANTES, IL6, sICAM-1 (BioSource), and CRP (Alpha Diagnostic International).
Primary endpoint data are presented as mean±SE. Data were log transformed to achieve a normal distribution verified by Kolmogorov-Smirnov test for normality. Statistical comparisons were performed using two-way ANOVA to determine a difference in mean values over time between the 3 groups. Pair-wise comparisons were performed when the ANOVA false-positive rate was ≦5%. A Bonferroni corrective for 3 pair-wise comparisons was applied, in which the p-value of […] was used to signify a false-positive rate of 5%. For ANOVA with a false-positive rate of ≧5%, the pair-wise comparisons were reported to be statistically nonsignificant (NS). Baseline and procedural characteristics data were analyzed with standard one way ANOVA for continuous data in more than 3 groups and a student's t-test for comparison of 2 groups. A Mann-Whitney Rank Sum test was used for nominal data. Statistical significance was assumed if the false positive rate was ≦5%.

In the case of `CC(=O)Oc1ccccc1C(=O)O` [aspirin], in the data set on platelets [1] (after aspirin use), the “release of sCD154 from platelets stimulated with ADP or TRAP” value is “unaffected; also recorded: does not block”. Also, the “release of CD154 from platelets activated by collagen” value with platelets [1] (aspirin, in words) is listed as “blocks”. For the same molecule, in the data set with platelets [1] (donors took 325 mg aspirin for 7 days, collagen 4 μg/mL), the “decrease in the release of sCD154 from collagen-induced platelet aggregates” value stood at 50%. Moreover, the “platelet aggregation in response to optimal doses of platelet agonists” value with platelets [2] is given as “no effect”.
For `CCCCS(=O)(=O)N[C@@H](Cc1ccc(OCCCCC2CCNCC2)cc1)C(=O)O` [tirofiban], in the data set with platelets [1], the “Inhibition of sCD154 Release at >90% Platelet Aggregation Inhibition, %” value turned out to be 80 ± 5.3% and the “Potentiation of sCD154 Release, %” value worked out at 19 ± 7.7%.

B1: CD40L(KGE): CD154 in which the KGD eptifibatide-recognition sequence was mutated to KGE (D117E) (protein, UniProt P29965 113-261, looked up, variant D117E)
CD40 ligand, soluble form: MQKGEQNPQIAAHVISEASSKTTSVLQWAEKGYYTMSNNLVTLENGKQLTVKRQGLYYIYAQVTFCSNREASSQAPFIASLCLKSPGRFERILLRAANTHSSAKPCGQQSIHLGGVFELQPGASVFVNVTDPSQVSHGTGFTSFGLLKL
For B1, the “aggregate formation on coated surface” value in the data set with platelets in whole blood is “does not induce”. The “fibrinogen binding to platelets and generation of microparticles” value in the data set on washed platelets is “did not stimulate”.

B2: abciximab (antibody, chains of the INN, looked up, V domains shown)
VH: EVQLQQSGTVLARPGASVKMSCEASGYTFTNYWMHWVKQRPGQGLEWIGAIYPGNSDTSYIQKFKGKAKLTAVTSTTSVYMELSSLTNEDSAVYYCTLYDGYYVFAYWGQGTLVTVSA
VL: EIVLTQSPVTLSVTPGDSVSLSCRASRDISNNLHWFQQTSHESPRLLIKYASQSMSGIPSRFSGSGSGTDFTLSINSVETEDFGMYFCQQTNSWPYTFGGGTKLEIK
modifications: Fab
notes: parenteral GP IIb-IIIa antagonist
For the molecule B2, in the data set on platelets [1], the “Inhibition of sCD154 Release at >90% Platelet Aggregation Inhibition, %” value was determined as 57 ± 8.2% and the “Potentiation of sCD154 Release, %” value amounted to 19 ± 7.5%. The “Platelet inhibition (% inhibition)” value in the data set on platelets [3] was 93±4%. Also, in data set [4] (2-24 hours after PCI, not statistically significant), the “CRP levels after PCI” value is “lowest levels”. Moreover, the “plasma RANTES levels after PCI” value in data set [4] (versus baseline) was “not observed”.
